Key:
[1] = tested on: Nc1ncnc2c1ncn2[C@@H]1O[C@H](COP(=O)(O)OP(=O)(O)OP(=O)(O)O)[C@@H](O)[C@H]1O; test: purified protein; settings: FMN co-substrate, MgCl2, Tris-HCl pH 7.5, 37°C
[2] = tested on: Cc1cc2nc3c(=O)[nH]c(=O)nc-3n(C[C@H](O)[C@H](O)[C@H](O)COP(=O)(O)O)c2cc1C; test: purified protein; assay type: biochemical, Homo sapiens; settings: 100 μM ATP, 5 mM MgCl2, 50 mM Tris-HCl pH 7.5, 37°C

Substance	Km [1] [µM]	Km [2] [µM]
6His-tagged human FADS isoform 2 (FADS2), WT (Homo sapiens)	8.10 ± 1.37	0.32 ± 0.10
6His-tagged human FADS isoform 2 (FADS2), WT (Homo sapiens; DEL495-495)	8.02 ± 2.23	0.98 ± 0.23
6His-tagged human FADS isoform 2 (FADS2), WT (Homo sapiens; R530C)	4.63 ± 1.00	0.39 ± 0.07
